Measured values: the RNAGym collection of RNA variant scans (doi:10.7554/elife.90254)

B1: LINE1-full (parent)
chain: UACGUAGGUGGUUUUCCCCUGAUAGUGCUAAGGGGGCCUGGAAGUUUGGACUGGGCAGAGCUCAACACAGCGUGGCAAAGUGGCUGUGGCUAGACUGCCUCUCUGGAUUCCUCGUCACUCAGCAGGGCAUCUCUGAGAGAAAUGCC

Variants of: B1
Assay: self-cleavage, relative activity (ratio to wild type); higher = more cleavage; in vitro, sequencing; the parent is a self-cleaving ribozyme

Point of comparison: U20C A78U, self-cleavage 1.86. Against it:
- C19U G114A — lower, 1.28
- C19U G125U — lower, 1.81
- C19U U45A — lower, 1.43
- C19U U45C — lower, 0.86
- C19U U46C — lower, 1
- C19U U47C — lower, 0.98
- C19U U62A — lower, 0.07
- C19U U73A — lower, 1.15
- C19U U73C — lower, 0.85
- C19U U81A — lower, 1.05
- C19U U85C — lower, 0.21
- C19U U91C — lower, 0.62
- C19U U96A — lower, 0.07
- C19U U102A — lower, 1.19
- C19U U104A — lower, 1.07
- C19U U104C — lower, 0.65
- C19U U115A — lower, 1.04
- C19U U130C — lower, 1.08
- C19U U143C — lower, 0.98
- U20A — lower, 1.21
- U20A A22G — lower, 0.69
- U20A A22U — lower, 1.56
- U20A A24U — lower, 1.41
- U20A A42U — lower, 0.9
- U20A A43U — lower, 1.46
- U20A A50U — lower, 1.06
- U20A A57G — lower, 1
- U20A A57U — lower, 0.11
- U20A A59U — lower, 0.7
- U20A A64G — lower, 0.46
- U20A A65G — lower, 0.11
- U20A A67G — lower, 0.45
- U20A A67U — lower, 0.13
- U20A A69C — lower, 0.06
- U20A A69U — lower, 0.1
- U20A A77C — lower, 1.75
- U20A A77G — higher, 2.25
- U20A A77U — lower, 1.14
- U20A A78U — lower, 1.34
- U20A A79G — lower, 0.92
- U20A A92G — lower, 0.05
- U20A A92U — lower, 0.92
- U20A A117C — lower, 1.77
- U20A A117G — higher, 1.94
- U20A A117U — lower, 1.49
- U20A A121G — lower, 1.14
- U20A A121U — lower, 1.55
- U20A A129G — lower, 0.97
- U20A A136U — lower, 1.38
- U20A A138U — lower, 1.19
- U20A A142G — lower, 1.08
- U20A C28U — lower, 1.3
- U20A C37G — higher, 2.63
- U20A C38A — lower, 1.01
- U20A C56U — lower, 0.18
- U20A C95A — lower, 0.09
- U20A C95U — lower, 0.13
- U20A C99A — lower, 0.74
- U20A C110A — lower, 1.4
- U20A C145U — lower, 1.13
- U20A G34A — lower, 0.88
- U20A G36A — lower, 0.94
- U20A G36C — lower, 0.93
- U20A G44U — lower, 1.2
- U20A G48A — lower, 0.77
- U20A G48U — lower, 1.42
- U20A G53U — lower, 1.1
- U20A G72A — lower, 1.31
- U20A G86A — lower, 0.18
- U20A G122U — lower, 1.59
- U20A G126A — lower, 1.28
- U20A G127A — lower, 1.1
- U20A G137A — lower, 1.29
- U20A U26C — lower, 1.11
- U20A U29A — lower, 1.05
- U20A U39C — lower, 0.93
- U20A U45C — lower, 1.36
- U20A U52A — lower, 0.54
- U20A U52C — lower, 1.77
- U20A U52G — lower, 1.58
- U20A U62C — lower, 0.06
- U20A U73A — lower, 1.5
- U20A U73C — lower, 1.42
- U20A U85C — lower, 0.09
- U20A U91C — lower, 0.65
- U20A U102C — lower, 1.46
- U20A U108G — lower, 0.53
- U20A U112C — lower, 0.79
- U20A U115C — lower, 1.66
- U20A U119A — lower, 1.47
- U20A U119C — lower, 1.05
- U20A U130A — lower, 0.32
- U20A U130C — lower, 1.45
- U20A U132A — lower, 1.61
- U20A U134A — lower, 0.92
- U20C — lower, 1.37
- U20C A22G — lower, 1.04
- U20C A22U — lower, 1.12
- U20C A31G — lower, 1.16
- U20C A31U — lower, 1.08
- U20C A42U — lower, 1.06
- U20C A43G — lower, 1.35
- U20C A43U — lower, 1.4
- U20C A50G — lower, 0.66
- U20C A59G — lower, 0.11
- U20C A64G — lower, 0.41
- U20C A64U — lower, 0.65
- U20C A65G — lower, 0.06
- U20C A69G — lower, 0.66
- U20C A69U — lower, 0.07
- U20C A77G — lower, 1.7
- U20C A77U — lower, 1.02
- U20C A79G — lower, 1.5
- U20C A79U — lower, 1.7
- U20C A92C — lower, 0.14
- U20C A107G — lower, 1.6
- U20C A107U — lower, 1.34
- U20C A117G — lower, 1.59
- U20C A121G — lower, 1.35
- U20C A129G — higher, 2.29
- U20C A129U — lower, 1.3
- U20C A136C — lower, 1.74
- U20C A136G — lower, 1.26
- U20C A140G — lower, 1.35
- U20C C28A — lower, 0.84
- U20C C37G — lower, 1.08
- U20C C37U — lower, 1.33
- U20C C38A — lower, 1.11
- U20C C56U — lower, 0.11
- U20C C63U — lower, 0.48
- U20C C71U — lower, 0.77
- U20C C98A — lower, 0.07
- U20C C99U — lower, 0.68
- U20C C103A — lower, 1.49
- U20C C110U — lower, 1.4
- U20C C111U — lower, 1.03
- U20C C113A — lower, 1.06
- U20C C123A — lower, 1.34
- U20C C123U — lower, 0.91
- U20C G21A — lower, 1.12
- U20C G27A — lower, 1.12
- U20C G35A — lower, 1.73
- U20C G36C — lower, 1.51
- U20C G40C — higher, 2.31
- U20C G54U — lower, 0.91
- U20C G55A — lower, 0.25
- U20C G60U — lower, 0.05
- U20C G70A — lower, 0.14
- U20C G70U — lower, 0.05
- U20C G72C — higher, 2.53
- U20C G74U — lower, 1.46
- U20C G88A — lower, 0.06
- U20C G89A — lower, 0.09
- U20C G93A — lower, 0.04
- U20C G126U — higher, 1.92
- U20C U26A — lower, 0.92
- U20C U26C — lower, 1.26
- U20C U29A — lower, 0.62
- U20C U29C — lower, 1.27
- U20C U39A — lower, 1.48
- U20C U39C — lower, 1.28
- U20C U46A — lower, 0.85
- U20C U46G — lower, 1.52
- U20C U47A — lower, 1.19
- U20C U52A — lower, 0.69
- U20C U62C — lower, 0.1
